Reference: patent publication US20230055005A1 (ROCHE DIAGNOSTICS OPERATIONS, published 2023)
Residue numbers refer to the chain shown, from its start. Bridge positions count the residues as written; N and C are the ends. Square brackets hold non-standard residues; d marks the D form. Primed or numbered codes have the meaning given here. Glu(Bi-PEG)″ = Nδ-(N-biotinyl-3-(2-(2-(3-aminopropyloxy)-ethoxy)-ethoxypropyl)-L-glutamine, biotin-PEG linker residue; Glu(Bi-PEG) = N-terminal added Glu carrying a biotin-linker; Glu(Bi-PEG)(3) = N-terminal added Glu biotin-linker residue; Gla = N[C@@H](CC(C(=O)O)C(=O)O)C(=O)O

T1: Bi-SEQ ID NO: 1, *H**Glu(Bi-PEG)*NLERECVEETCSYEEA*NH2 (disulfide 6-11 (inferred))
T1 construct: Synthetic peptide
T1 peptide: {Glu(Bi-PEG)}-NLERECVEETCSYEEA-NH2

T2: Bi-SEQ ID NO: 4, *H**Glu(Bi-PEG)*…laTCSYEEA*NH2 (disulfide 6-11)
T2 construct: Synthetic peptide; 12-27 of mature prothrombin with Gla at 20
T2 peptide: {Glu(Bi-PEG)(3)}-NLERECVE[Gla]TCSYEEA-NH2

T3: Bi-SEQ ID NO: 3, *H**Glu(Bi-PEG)*…laEA*NH2 (disulfide 6-11; not fully specified)
T3 construct: Synthetic peptide; 12-27 of mature prothrombin with Gla at 25
T3 peptide: {Glu(Bi-PEG)″}-NLERECVEETCSY[Gla]EA-NH2

B1: monoclonal anti-PIVKA-II antibody 7A10 (antibody, V domains shown)
VH: QSLEESGGRLVTPGTPLTLTCTVSGIDLSTYAMGWVRQAPGKGLEYIGIIRSSGRTYYASWAKGRFTVSKTSSTTVDLSMTSPTTEDTATYYCYRNVSLWGQGTLVSVSS
VL: DVVMTQTPSSVEAAVGGTVTIKCQASQSIGNNLAWYQQKPGQRPNLLIYSASTLASGVPSRFRGSGSGTEFTLTISGVQCDDAATYYCQSYAGVSESVFWYSFGGGTGVVVK
notes: Recombinant rabbit IgG from B-cell cloning, expressed in HEK cells
B2: monoclonal anti-PIVKA-II antibody 9A6 (antibody, V domains shown)
VH: QSVEESGGRLITPGTPLTLTCTVSGFDLSRYAVGWVRQAPGKGLEYIGLIVSDGRTYYASWAKGRFTVSKTSSTTVDLKMTSPTAGDTATYYCYRNVSLWGQGTLVSVSS
VL: DVVMTQTPSSVEAAVGGTVTIKCQASQSIGSNLAWYQQKPGQPPKLLIYSASTLASGVPSRFSGSGSGTEFTLTFSGVQCGDAATYFCQSYAGVSANIFYYSFGGGTEVVVM
notes: as for B1
B3: monoclonal anti-PIVKA-II antibody 13H7 (antibody, V domains shown)
VH: B2 VH with I11V, G14E, V33M, V68I, T81A, A85T, G86E, S110E
VL: B2 VL with P59S, S63K, F75I, G77D, V78L, Q79E, G81A, F87Y, V94I, S102A
notes: as for B1
B4: monoclonal anti-PIVKA-II antibody 4E8 (antibody, V domains shown)
VH: B2 VH with I11V, V51T, S60N, A85T, G86E
VL: B2 VL with S9A, P40S, S56P, P59S, S76T
notes: as for B1

Experiments:
Assay in all cases: ECL assay (Elecsys 2010), ruthenylated antibody and biotinylated peptide, streptavidin beads
[1] = molecular target: Bi-SEQ ID NO: 2, *H**Glu(Bi-PEG)*NLERECVGlaETCSYEEA*NH2
[2] = molecular target: T1, Bi-SEQ ID NO: 1, …
Experimental: (§1) An Elecsys 2010 immunoanalyzer was used to determine the reactivity of selected anti-PIVKA-II antibodies with the above peptide as follows:
(§2) 50 μL of ruthenylated anti-PIVKA-II antibody (300 ng/mL in assay buffer—s. example 2.4) were reacted with 50 μL of biotinylated peptide (2.5 ng/mL in assay buffer) and 70 μL assay-buffer in a first step, and incubated at 37° C. for 9 min. After addition of 30 μL streptavidin coated paramagnetic Elecsys® beads (0.7 mg/mL; see example 2.4) and a second incubation step (37° C., 9 min), the reaction mixture was aspirated into the measuring cell where the microparticles are magnetically captured onto the surface of the measuring-electrode. Unbound substances are removed with ProCell system-buffer (Roche Diagnostics GmbH, Germany). Application of a voltage to the electrode then induces electrochemiluminescense-based emission of light which is measured by a photomultiplier.

[3] = molecular target: T2, Bi-SEQ ID NO: 4, …
Experimental: as §1, §2

[4] = molecular target: T3, Bi-SEQ ID NO: 3, …
Experimental: as §1, §2

Row | Binder | reactivity (signal normalized to Bi-SEQ ID NO:1) [1] | reactivity (signal normalized to Bi-SEQ ID NO:1) [2] | reactivity (signal normalized to Bi-SEQ ID NO:1) [3] | reactivity (signal normalized to Bi-SEQ ID NO:1) [4]
1 | B1 | 4% | 100% | 68% | 105%
2 | B2 | 5% | 100% | 78% | 107%
3 | B3 | 5% | 100% | 68% | 107%
4 | B4 | 5% | 100% | 76% | 108%
